B1: FAM189A2 (parent)
chain: CALNALTTTVCLVAAALRYLQIFA
B2: RHOBTB3 (parent)
chain: STTEGIQLAKELGATYLELHSLDD

Variants of: B1
Assay: protein stability index of a GFP-peptide fusion (GPS, HEK-293T) (PSI 1-6); higher = more stable
Settings: c terminus: a fixed tail appended
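Note: lentivirally expressed fusions sorted by FACS into six bins by GFP to DsRed ratio, PSI derived from sequencing read proportions per bin multiplied by bin number.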

Protein stability index of substitutions, site by site:
A5: C 3.07
N4: A 1.84, S 3.62, E 2.1, P 2.66, R 3.01, D 2.85, H 3.53, I 2.87, F 2.81, W 2.84, K 2.35, G 2.34, C 2.79, T 2.17, V 3.46
A2: K 3.83, G 3.74, F 4.07, D 4.37, P 3.11, N 3.43, Q 3.74, T 4.22, M 2.77, Y 3.17, R 3.42, W 2.26, I 2.77
L3: T 2.98, R 2.9, W 1.62, D 3.27, F 3.52, V 2.62, I 1.61, H 2.11, S 2, C 4.07, P 3.65, A 3.13, N 2.3, K 1.92, E 3.25, Q 3
C1: G 2.6, S 3.48, Y 2.99, A 2.05, Q 3.13, V 1.85, L 1.59, R 3.14, P 1.11, F 4.75, T 3.21, N 3.61, I 2.86, K 3.08, D 2.46, H 2.7

Variants of: B2
Assay: as above
Settings: c terminus: a fixed tail appended

Protein stability index, by site and new letter:
L19: Y 4.82, G 5.31, C 4.71, R 4.43, I 2.38, D 5.77, Q 5.55, A 4.63, E 4.76, H 5.02, P 5.37, S 5.01, K 5.37, V 4.68
S21: H 3.38, E 3.93, V 2.93, K 3.02, C 3.14, Q 3.39, A 2.93, R 2.86
L8: P 4.92, T 4.97, K 4.78, H 4.53, Q 5.2, F 4.24, A 4.29, G 5.04, C 3.94, E 4.97, V 4.44
T15: G 3.97, F 2.59, W 2.02, L 2.1, Q 4.33, D 4.41, E 4.87
T2: V 2.81, I 2.07, R 3.5, C 3.31, L 2.21, K 3.5, Y 2.37, D 4.43, A 3.58, H 3.68, Q 3.85, W 1.58
G5: Q 3.94, N 4.27, K 3.73, I 1.92, P 4.09, T 4.16, E 3.31, R 3.89, M 2.15, A 3.23, H 3.26, S 3.56, V 3.98, L 3.64, Y 2.91
A14: R 3.59, M 3.58, I 3.31, V 3.85, Y 3.7, S 4.02, W 1.75, L 3.15, Q 3.28, P 4.28, E 4.25
L17: V 4.15, G 5.66, Y 4.12, Q 4.74, H 4.8, D 5.55, S 4.61, F 3.27, E 4.73, T 4.82, N 4.6
K10: F 1.38, P 4.33, W 1.5, Q 3.57, A 2.73, R 2.99, T 1.84, E 4.35, S 3.13
D23: T 3.75, C 1.87, R 2.81, P 3.66, V 2.29, Q 3.55, S 3, Y 2.42, F 1.71, H 3.71, K 3.14, N 3.13, W 2.92, A 2.43
L22: C 4.01, N 4.68, T 4.15, K 4.68, P 4.54, H 4.62, E 5.93, I 3.7, G 3.38, R 5.07, D 4.96, Y 4.41, F 3.47
A9: P 4.49, T 4.21, F 2.28, R 3.01, Q 3.52, M 1.74, D 4.64, Y 3.12, I 2.63
Q7: K 3.96, L 2.95, C 3.49, M 2.86, A 3.7, G 3.36, R 2.19, S 4.24, T 3.68, N 3.24, F 3.37, D 4.68, P 3.65, V 3.54, E 3.71, I 3.37
D24: V 1.57, K 3.02, W 2.09, E 3.35, G 1.94, A 2.17, Q 1.96, R 2.26, S 2.02
H20: P 4.93, T 3.15, K 2.42, L 1.41, V 1.65, I 1.76, C 2.68, D 4.95, S 3.44
S1: C 2.86, F 2.39, T 3.56, K 4.39, Q 4.18, R 3.64, W 2.74, G 3.69, L 2.26, M 3.49, P 3.63, N 3.19, V 3.06, I 2.44, A 3.21, E 4.26
E11: A 1.53, H 4.34, L 2.19, W 1.73, V 2.87, Q 3.89, G 3.86, I 2.39, T 3.61, N 3.84
T3: Q 2.84, Y 2.83, E 4.19, N 2.9, M 2.31, W 1.84, F 2.29, D 3.97, H 2.49, P 3.56
G13: T 2.72, R 1.66, D 4.31, P 4.81, Y 1.42, E 2.73, C 2.88, S 3.35, M 1.66, V 2.52, N 2.64, A 1.75, K 3.16, F 2.36
E4: T 3.67, K 4.24, Q 2.71, V 3.1, W 2.58, I 2.35, N 3.58, M 2.27, R 3.42, C 1.66
I6: G 4.9, S 4.39, T 1.68, Y 3.22, P 4.31, N 4.39, K 3.94, Q 4.54, V 4.05, F 2.59, E 4.71, C 5.12, R 3.6
L12: G 4.89, C 3.96, I 3.92, E 4.99, Y 4.81, Q 4.31, P 4.42, F 3.89, H 4.78, K 5.07, D 5.62
E18: I 1.86, W 1.61, S 3.86, Y 2.57, N 4.02, C 2.62, G 3.72, D 4.36, T 3.71, M 2.66
Y16: W 2.49, E 4.35, G 4.83, V 3.59, K 4.81, P 5.66, L 2.91, Q 4.33, S 4.84, D 3.29, I 3.47

Source: the supplement of paper PMC10567573
